The series deals with the molecule itself. Description: cross-linking; cell surface proteins of transfected HEK293/NF-κB-luc/Fn14-HA cells cross-linked with 1 mM BS3 in PBS, 20 min, room temperature; lysis in HNTG buffer, reducing SDS-PAGE, anti-myc Western blot.

The values below come from publication PMC3672086, “TWEAK-Independent Fn14 Self-Association and NF-κB Activation Is Mediated by the C-Terminal Region of the Fn14 Cytoplasmic Domain” (PLoS ONE, 2013).

B1: myc epitope-tagged Fn14 extracellular domain deletion (Fn14-ΔEC) (receptor, human, UniProt Q9NP84 28-129, looked up)
chain: EQAPGAAAPPAPFRLLWPILGGALSLTFVLGLLSGFLVWRRCRRREKFTTPIEETGGEGCPAVALIQ
notes: human Fn14 splice variant (exon 2 skipped), 94-aa precursor missing amino acids 33-67 of the extracellular domain; mature myc-tagged protein 77 aa; Cloned from U87-luc cell mRNA; natural splice variant mRNA, endogenous protein not detected by the authors; also called ΔEC mutant; short Fn14 isoform; source: HEK293 or HEK293/NF-κB-luc/Fn14-HA cells, transiently transfected (pcDNA6/Fn14-ΔEC), on …
B1: the “stoichiometry N” value stood at 2.
